According to PMC3731144 (Proteins, 2012):

Legend:
[1] = target: gp120YU2 K97A (HIV-1 strain YU2); experiment: SPR
[2] = target: gp120YU2 E102A (HIV-1 strain YU2); experiment: SPR
[3] = target: gp120YU2 T257A (HIV-1 strain YU2); experiment: SPR
[4] = target: gp120YU2 D474A (HIV-1 strain YU2); experiment: SPR
CCR5-utilizing virus = conditions: ref [4]; cited from earlier work

Hexahis-tagged 4-domain soluble CD4 (receptor)
Kd [1]: 10 nM
Kd [2]: 3 nM
Kd [3]: 5 nM
RU bound at the end of association (500 nM CD4) [3]: 23 RU
Kd [4]: 5 nM
RU bound at the end of association (500 nM CD4) [4]: 47 RU

maraviroc
antiviral effectiveness by tropism (CCR5-utilizing virus): only effective against solely CCR5-utilizing virus
